Test results reported in article PMC11219949.

Columns and labels:
[1] = biological target: Recombinant His-tagged AUREO1c protein (Phaeodactylum tricornutum aureochrome 1c) (Phaeodactylum tricornutum); test: native MS; UHPLC-native MS (Waters BEH SEC column, 100 mM ammonium acetate, room temperature); 5 uM protein in PBS incubated under blue light (200 umol photons m^-2 s^-1) for 60 min, then cross-linked with 5 uM BS3 and quenched with Tris
[2] = biological target: Recombinant His-tagged AUREO1c protein (Phaeodactylum tricornutum aureochrome 1c) (Phaeodactylum tricornutum); test: native MS; UHPLC-native MS (Waters BEH SEC column, 100 mM ammonium acetate, room temperature); 5 uM protein in PBS incubated in the dark for 60 min, then cross-linked with 5 uM BS3 and quenched with Tris

stoichiometry N [1]: 2
stoichiometry N [2]: 2
Substance: Recombinant His-tagged AUREO1c protein (Phaeodactylum tricornutum aureochrome 1c) (natural protein)
